Laboratory results as given in ChEMBL document CHEMBL1156111, “Identification of the amino acid-AZT-phosphoramidase by affinity T7 phage display selection” (Bioorg Med Chem Lett, 2009).

Substrate: Cc1cn([C@H]2C[C@H](N=[N+]=[N-])[C@@H](COP(=O)(O)NCc3c[nH]c4ccccc34)O2)c(=O)[nH]c1=O
Assay: Hydrolysis activity of human HINT1 at pH 7.2 by continuous fluorescence assay

B1: Adenosine 5'-monophosphoramidase HINT1 (Homo sapiens), P49773 (protein)
chain: MADEIAKAQVARPGGDTIFGKIIRKEIPAKIIFEDDRCLAFHDISPQAPTHFLVIPKKHISQISVAEDDDESLLGHLMIVGKKCAADLGLNKGYRMVVNEGSDGGQSVYHVHLHVLGGRQMHWPPG
- Km: 981 µM
